{"source": "paper doi:10.1101/2025.06.28.662095", "about": "“Mechanistic insights into the allosteric regulation of cell wall hydrolase RipA in Mycobacterium tuberculosis” (bioRxiv, 2025)", "target": "T1, MtSteBΔTM (M. tuberculosis SteB devoid of its TM domain, residues 38-314) (Mycobacterium tuberculosis, UniProt P9WJ83 38-314)", "T1 construct": "Homodimer in both crystal structures; also called Rv1698; MctB; not shown: 6xHis-SUMO, N-terminal, cleaved", "test": "BLI; biotinylated MtRipACC immobilised on streptavidin biosensors; 25°C; 25 mM HEPES pH 7.5, 150 mM NaCl, 5% glycerol, BSA 1 mg/mL, 0.05% Tween 20; steady-state signal versus concentration, one-site binding model; apparent Kd", "settings": "both partners purified", "data": [{"binder": "MtRipACC (coiled-coil domain of M. tuberculosis RipA, residues 40-240) (domain or fragment, biotinylated with EZ-Link NHS-PEG4-Biotin (20 molar excess) for the BLI assays, also called RipA coiled-coil (CC) domain; MtRipA CC domain; not shown: 6xHis-SUMO, N-terminal, cleaved) DPQTDTIAALIADVAKANQRLQDLSDEVQAEQESVNKAMVDVETARDNAAAAEDDLEVSQRAVKDANAAIAAAQHRFDTFAAATYMNGPSVSYLSASSPDEIIATVTAAKTLSASSQAVMANLQRARTERVNTESAARLAKQKADKAAADAKASQDAAVAALTETRRKFDEQREEVQRLAAERDAAQARLQAARLVAWSSE", "values": [{"measurement": "Kd", "value": "42.6 ± 4.4", "unit": "µM"}]}]}
